Results taken from the nanobody polyreactivity screen of Harvey et al. (2022).

Test: yeast display, Sf9 membrane polyspecificity reagent, FACS + sequencing; frameworks hold sequencing errors
Method in brief: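 Galactose induction of a Saccharomyces cerevisiae BJ5465 synthetic nanobody display library ran 36–48 hours. The cells were then stained for 1 hour at 4 °C with 10% biotinylated, detergent-solubilized Sf9 membrane reagent, pulled down on streptavidin microbeads and FACS-sorted into low and high (top ~1%) gates on expression and reagent-binding fluorescence. Labels for polyreactivity follow the gate of origin.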
In the case of “QVQLVESGGGLGQAGGSLRLSCAASGLIFNIYARGWYSQAPGKDRELVATIRYSGGSTNYADSVKGRVTISRDNAKNTVNLQMKSLNPEDTAVYYCNAGYYPTGYDYWGQGTQVTVSS”, the “polyreactivity (PSR sort gate)” value is reported as “low polyreactivity”. In the case of “QVQLVESGGGLGQAGGSLRLSCAASGLIFVRNDMGWYRQAPGKERELVADISDGSTYADSVKGRFTISRDNAKNTVYLQMNSLKPEDTAVYYCNKDNHDVELPVEFEYWGQGTHVTVSS”, the “polyreactivity (PSR sort gate)” value is reported as “high polyreactivity”. With “QVQLVESGGGLGQAGGSLRLSCAASGRIFYRYVMGWYRPAPGKERELVAAITTSGGRTYYADSVKGRFTISRDNAKNTVYLQLNSLKPEDTAVYDCAAASPTPVYWSGRDYYYWGQGTQVTVSS” the “polyreactivity (PSR sort gate)” value was “high polyreactivity”. In the case of “QVQLVESGGGLGQAGGSLRLSCAASGRTFYYYTMGWYRPAPGKERELVAAITHGGSTYYADSVKGRFTISRDNAQNTVYLQMNSLKPEDTAVYSCTAVYHYPYEYWGQGTQVTVSS”, the “polyreactivity (PSR sort gate)” value is reported as “high polyreactivity”. For “QVQLVESGGGLGQAGGSLRLSCAASGSIFDWYAMGWYRKAPGKEGELVAAISSGDSTYYADSVKGRFTISRDNAKNTFYLQMNSLKPEDTAVYYCAAVTKLSGIRYNYWGQGTQVTVSS”, the “polyreactivity (PSR sort gate)” value was “low polyreactivity”. For “QVQLVESGGGLGQAGGSLRLSCAASGSIFITYAMGWYRQAPGKERELVAAIRRGGRTNYADSVKGRFTISRDNAKNTVYLQMNSLKPEDTAVYYCAAEFRTGWPYYPDYAYDYWGQGSQVTVSS”, the “polyreactivity (PSR sort gate)” value was “low polyreactivity”. In the case of “QVQLVESGGGLGQAGGSLRLSCAASGSIFPDYVMGWYRQAPGKARELVAAISRGGSTYYADSVKGRFTISRDNAKNTVYLQMNSLKPEDTAVYYCAADNPHWRYEYWGPGTQVTVSS”, the “polyreactivity (PSR sort gate)” value is reported as “high polyreactivity”. With “QVQLVESGGGLHQAGGSLRLSCAASGSTYASNARGWYRQAPGKETELVAAITSRDASTYYADSVKGRFTISRDYAKNTVYLQMNRLKPEDTAVYYCATDGYSPAAFDYWGQGTQVTVSS” the “polyreactivity (PSR sort gate)” value was “low polyreactivity”. In the case of “QVQLVESGGGLIQAGGSLRLSCAASGSTFANNAMGWYRPAPGKERELVAAISYNGGSTYYADSVKGRFTISRDNAKNTVYLQMNSLKPEDTAVYYCAAYHFRAPSEYDYWGQGTQVTVSS”, the “polyreactivity (PSR sort gate)” value is reported as “low polyreactivity”. In the case of “QVQLVESGGGLIQAGGSLRLSCATSGSIFDDYAMGWYRQAPGKERELVAAISSSGTSTYYADSVKGRFTISRDNAKNTVYLQMKSLKPEDTAVYYCAARSAILKSGYLMDYWGQGTQVTVSS”, the “polyreactivity (PSR sort gate)” value is reported as “low polyreactivity”. With “QVQLVESGGGLLKAGGSLRLSCAASGIIFDSYAMGWYIQAPGKERELVAAITSDSGRTYYADSVKGRFTISRDYAKNTFYLQMNSLKPEDTAVYYCAKRWEGPYDYWGQGSQVTVSS” the “polyreactivity (PSR sort gate)” value was “low polyreactivity”. In the case of “QVQLVESGGGLLKAGGSLRLSCAASGSTFSVYAMGWYRQAPGKEREFVARITWNGGRTYYADSVKGRFTISRDNAKNTVYLQMNSLKPEDTAVYYCAARGPTVTGTGGDYWGQGTQVTVSS”, the “polyreactivity (PSR sort gate)” value is reported as “high polyreactivity”. For “QVQLVESGGGLLKEGGSLRLICAASGRIFVGYDMGWYRQEPGKERELVAAISSDGGSTYYSDSVKGRFTISRDNAKNTVYLQMNSVKPEDTAFYYCAADDFSTVEYDYWGQGTQVNVSS”, the “polyreactivity (PSR sort gate)” value was “low polyreactivity”. With “QVQLVESGGGLLQAGASLRLSCAASGRTIYRYAMGRYRQAPGKERELVAAITRRGVNTYYADSVKGRFTISRDNAKNTVYLQMYSLKPVDTAVFYCNAAYSSRYDYCGQGTQVTVSS” the “polyreactivity (PSR sort gate)” value was “high polyreactivity”. For “QVQLVESGGGLLQAGCSLRISCAASGFIFYKYVMGWYRPAPGKERELVAAINWSGGSTYYADSVKGRFTISRDNAKNTVYLQMNSLKQEDTAVYYCNAARRSKGGLNDYYWGQGTQVTVSS”, the “polyreactivity (PSR sort gate)” value was “high polyreactivity”. For “QVQLVESGGGLLQAGGILRLSCAASGRTFGLYAMRWYRQAPGKERELVAAIRGSAGSTYYADSVKGRFTISRDNAKNTVYLQMNSLKPEDTAVYYCATVGYPSLWYGYGYWGQGTQVTVSS”, the “polyreactivity (PSR sort gate)” value was “low polyreactivity”. In the case of “QVQLVESGGGLLQAGGRLRLSCAASGGIFQGYAMGWYRQAPGKERELVAAISRSGGRTYYADSVKGRFTISRDNAKNTVYLQMNSLKPEDTAVYYCAKSQSAKGGYDYWGQATQVTVSS”, the “polyreactivity (PSR sort gate)” value is reported as “high polyreactivity”. With “QVQLVESGGGLLQAGGSLLLSCAASGSIFDTNAMGWYRQAPGTERELVAAISWSDTSTYADSVKGRFTISRDNAKNTVYLQMNSLKPEDTAVYYCATDTRSQAYYYWGQGTQVNVSS” the “polyreactivity (PSR sort gate)” value was “low polyreactivity”. With “QVQLVESGGGLLQAGGSLRLICAASGFIVRRYAMGWYRQAPGKARELVAAITSGGSTYYADSVKGRFTISRDNAQYTVYLQFNSMKPVDTADYYCNAYFTGKWYDYWGQGTQVTVSS” the “polyreactivity (PSR sort gate)” value was “high polyreactivity”. For “QVQLVESGGGLLQAGGSLRLSCAASGFTFSYYAKGWYRQAPGKERELVAVISDRGGITYYADSVKGRFTISRDNAKNTVYLQMNSVKPEDTAVYYCAADLDSWYGYYYIVEYWGQGTQVTVSS”, the “polyreactivity (PSR sort gate)” value was “low polyreactivity”. With “QVQLVESGGGLLQAGGSLRLSCAASGFTIKYYAMGWYRPAPGKERELVAAIRGSGAGTYYADSVKGRFTISRDNAKNTVYLQMNSLKPEDTAVYYCNKRWTYQWDDYWGQGTQVTVSS” the “polyreactivity (PSR sort gate)” value was “high polyreactivity”. With “QVQLVESGGGLLQAGGSLRLSCAASGIIFFKYAMGWYRQAPGKERELVAAINRSGGSTYYADSVKGRFTISRDNAKNSVSLQMNSLKPEDTAVYYCNARLTLRSYDYWGQGTQVTVSS” the “polyreactivity (PSR sort gate)” value was “low polyreactivity”. For “QVQLVESGGGLLQAGGSLRLSCAASGIIFRWYAMGWYSQAPGKERELVATITRSGGSTYYADSVKGRFTISRDNAKKTVYLLMKSLKPEDTAVFYCATGRYPSGRPTRNYDSVYWGHGTQVTVSS”, the “polyreactivity (PSR sort gate)” value was “high polyreactivity”. With “QVQLVESGGGLLQAGGSLRLSCAASGITFLGYAMGWYRQATWKERELVAAISISGDTYYADSEKGRFTISRDNAKNTVYLQMNSLKPEDTAVYYCAAVQSYAGFEYGYWGQGTQVTVSS” the “polyreactivity (PSR sort gate)” value was “high polyreactivity”. For “QVQLVESGGGLLQAGGSLRLSCAASGITFRRNTMGWYREAPGKVRELVATISWRGGNTFYADSVKGRCTISRDNAKNTVYLQMNSRKPEDTAVYYCAAYSPYITRPGYAPYGYWGQATQVTVSS”, the “polyreactivity (PSR sort gate)” value was “high polyreactivity”. With “QVQLVESGGGLLQAGGSLRLSCAASGITLSYYVMGWYRQAPGKERELVAAINQSGSRTYYADSVKGRFTISRDNPKNSVYLQMNSLKPEDTAVYYCAGVFSYQPTSGYGYWGQGTQVTVSS” the “polyreactivity (PSR sort gate)” value was “high polyreactivity”. For “QVQLVESGGGLLQAGGSLRLSCAASGLIFGYYAMGWYRQAPGKERELVGAITSSGTSTYYADSVKGRFTISRDNAKNTVYLQMNSLKPEDTAVYYCAAQYIGKKRFNYWGQGTQVTVSS”, the “polyreactivity (PSR sort gate)” value was “high polyreactivity”. In the case of “QVQLVESGGGLLQAGGSLRLSCAASGNIFTYYAMGWYRQAPGKERDLVAAIRWRSGSTYYADSVKGRFTISRDNAKNTVYLQMNSLKPEDTAVYYCADDGTPYEYDYWGQGTQVTVSS”, the “polyreactivity (PSR sort gate)” value is reported as “low polyreactivity”. With “QVQLVESGGGLLQAGGSLRLSCAASGRIFGSYAMGWYRPAPGKERELVAAINWRGGSTFYADSVKGRFTISRDNAKNTVYLQMNSLKPEDTAVYYCARRGYRQSGDYWGQGSQVTVSS” the “polyreactivity (PSR sort gate)” value was “low polyreactivity”. In the case of “QVQLVESGGGLLQAGGSLRLSCAASGRIFRYYAMVWYIQAPVKERELVAGISWTGGTTYYADSVNGRFTISLDNAKNSVYLQMYSLKPEDSAVDYCIVRRSTLYDYWGQGTQVTVSS”, the “polyreactivity (PSR sort gate)” value is reported as “high polyreactivity”. With “QVQLVESGGGLLQAGGSLRLSCAASGRNFRLYPMGWYRQAPGTERDFLAAITFSGGRTYYADSVKGRFTISRDNAKNTVYLQMKSLKPEDTAVYYCAARGQTGYYSGVGYWGLGTQVTVSS” the “polyreactivity (PSR sort gate)” value was “high polyreactivity”. For “QVQLVESGGGLLQAGGSLRLSCAASGRNFRYYAMGWYRQAPRKERELVAAITRGGRTNYADSVKGRFTISRDNAKNTVYLQMNSLKPEDSAVYYCAADYTKYYRRYYYWGQGTQVTVSS”, the “polyreactivity (PSR sort gate)” value was “high polyreactivity”. With “QVQLVESGGGLLQAGGSLRLSCAASGRTFGYYAMGWYRQAPGKERELVAAISKSGGRTYYADSVKGRFTISRDNAKNTVYLQMNSLKPEDTAVYYCAADGGAIVPYYENYYWGQGTQVTVSS” the “polyreactivity (PSR sort gate)” value was “high polyreactivity”. For “QVQLVESGGGLLQAGGSLRLSCAASGRTFYRYAMGWYRQAPGKERELVAAITWSGGSTYYADSVKGRFTTSRDNAKNTVYLQMNSLKPEDTAVYYCARRLYPYRPTAYDYWGQGTQVTVSS”, the “polyreactivity (PSR sort gate)” value was “low polyreactivity”. In the case of “QVQLVESGGGLLQAGGSLRLSCAASGSIFGGNAMGWYRQAPGKEREFVAAITVSDGSTYYADSVKGRFTISRDNAKNTVYLQMNSLKPEDTAVYYCAAGGFYYPHYDYWGQGSQVTVSS”, the “polyreactivity (PSR sort gate)” value is reported as “low polyreactivity”. For “QVQLVESGGGLLQAGGSLRLSCAASGSIFGYNAMGWYRQAPGKERELVAAISYSGGSTYYADSVKGRFPISRDNAKNTVYLQMNSLKPEDTAVYYCAKAGRYANLPYGYWGQGTQVTVSS”, the “polyreactivity (PSR sort gate)” value was “high polyreactivity”. In the case of “QVQLVESGGGLLQAGGSLRLSCAASGSIFSYYVMGWYRQAPGKERELVAAISSSGGSTYYADSVKGRFTISRDNEKNTVYLQMNSLKPEDTAVYYCAAQHYVRSSIPGFIYYYWGQGTQVTVSS”, the “polyreactivity (PSR sort gate)” value is reported as “high polyreactivity”. In the case of “QVQLVESGGGLLQAGGSLRLSCAASGSIFTHNAMGWYRQAPGKERELVAAISSGGSTNYADSVKGRFTISRDNAKNTVYLHMNSLKPEDTAVYYCAATDQKLSLDYSSYEYWGQGTQVTVSS”, the “polyreactivity (PSR sort gate)” value is reported as “low polyreactivity”. For “QVQLVESGGGLLQAGGSLRLSCAASGSIFTSNAMGWYRQAPGKERELVAAITRGGNTNYADSVKGRFTISRDNAKNTVYLQMNSLKPEDTAVYYCATEGFVYSWLWEFEYWGQGTQVTVSS”, the “polyreactivity (PSR sort gate)” value was “low polyreactivity”. For “QVQLVESGGGLLQAGGSLRLSCAASGSIFYGYAMGWYRQAPGKERELVAAITRGGGTYYADSVKGRFTNSRDNAKITVYLQMNSLKPEDTAVYYCALSFYRRYTPYDYWGQGTQLTVSS”, the “polyreactivity (PSR sort gate)” value was “high polyreactivity”. In the case of “QVQLVESGGGLLQAGGSLRLSCAASGSNFVAYAMGRYRQAPGKERELVAAITYSGGGTYYADSVKGRCTISRDNAKNTVYLLMNSLKPEDTALYYCNAVGGIYDFDYCGQGTQVTVSS”, the “polyreactivity (PSR sort gate)” value is reported as “high polyreactivity”. In the case of “QVQLVESGGGLLQAGGSLRLSCAASGSTFGFYALGWFRQAPGKERELVAAISSGGTSTYYADSVKGRFTISRDNAKTTVYLQMNSVIPEDTAVYYCNSDTFQYPSTYDYWGQGTQVTVSS”, the “polyreactivity (PSR sort gate)” value is reported as “low polyreactivity”. For “QVQLVESGGGLLQAGGSLRLSCAASGSTFSRYTMGWYRQAPGKERELVAAISYRGGSTYYADSVKGRFTISRDNAKNTVYLQMNSLKPEDTAVYYCAAEFRVEGSDYDYWGQGTQVTVSS”, the “polyreactivity (PSR sort gate)” value was “low polyreactivity”.
